{
  "source": "paper PMC8861115",
  "about": "“Characterization and structural analyses of a novel glycosyltransferase acting on the β-1,2-glucosidic linkages” (The Journal of Biological Chemistry, 2022)",
  "proteins": {"B1": {"name": "IaSGT (IALB_1185) (Ignavibacterium album JCM 16511) (protein)", "chain": "MKPHNSEKYFVKNGQPHFLISGEVHYFRINPKLWRNHLQLLKQTGADTVSTYIPWDWHEIEEDDFDFEGKTHPARNLIRFIKLCKEENLDLIVKPGPYILAEYENQGLPSWLLKKLSKNAFALDENGNVISPDLVSYLSDEFLEYTFKWYDKVMPIISKHQKEHYGPITMMQLCNEIGVFQWLSGKSDYNPKVINLYKEFIIQRYKTIEKLNSVYSTNYNSFDDLKAPSGKIKLRSDYCAYFDFHLFFREYYNKYISILKNKIRSFGINIKLTHNIPGWIYGNASELPMLISTYSEIMKNHPDIIFGLDHIPEFVSFRNAHSDLACNKILEAMQPEAPVWAAEFQAGTREHHVKAYAKDLETFYIASLAHGIKGFNYYMFSQGINPEGKGFYGKTFYFQTALDAASNKLALYDSIKKVNRFIRKEQKDLLRTNVNSEICVGFYKPYFFTELISSQLLKEKKLNVEELGLYIDPRFLREEILFNGLLRGLQTLNYNYDVVDLENCDLKSLTAYKQLWITSAEFMDAETQNLLSEFVLNGGNLILYPAVPTLDNYLNRCEILKNNFGIEFITKDSSHKVSAFGIEDVFTAFSKKQIYNDTNSKPIAFTQENEICGIRKKIGKGELTILGFAFGYTSDEHLELIDKLVKLNKIKRELFVSDKDIQFVVRENNKSRYIFFLNYHNERKTFNYRKSSELKKKKSEEISIAPFSYKVIKENK", "notes": "full length (no N-terminal signal peptide), his6-tag fusion from pET30a(+) NdeI/XhoI, E. coli BL21(DE3); homodimer"}},
  "settings_in_all_cases": "acceptor, donor Sop2 fixed 1 mM, pH 5.0, 37 °C",
  "key": {"purified protein [1]": {"substrate": "O=[N+]([O-])c1ccc(O[C@@H]2O[C@H](CO)[C@@H](O)[C@H](O)[C@H]2O)cc1", "assay": "purified protein"}, "purified protein [2]": {"substrate": "O=[N+]([O-])c1ccc(O[C@H]2O[C@H](CO)[C@@H](O)[C@H](O)[C@H]2O)cc1", "assay": "purified protein"}, "[3]": {"substrate": "CCO[C@H]1O[C@H](CO)[C@@H](O)[C@H](O)[C@H]1O", "assay": "hexokinase/G6PDH thio-NAD+ coupled glucose release", "assay_type": "biochemical, Ignavibacterium album", "from_the_text": "(§1) hexokinase/G6PDH thio-NAD+ coupled glucose release on IaSGT (IALB_1185)"}, "[4]": {"substrate": "CO[C@@H]1O[C@H](CO)[C@@H](O)[C@H](O)[C@H]1O", "assay": "hexokinase/G6PDH thio-NAD+ coupled glucose release", "assay_type": "biochemical, Ignavibacterium album", "from_the_text": "as §1"}, "[5]": {"substrate": "CO[C@H]1O[C@H](CO)[C@@H](O)[C@H](O)[C@H]1O", "assay": "hexokinase/G6PDH thio-NAD+ coupled glucose release", "assay_type": "biochemical, Ignavibacterium album", "from_the_text": "as §1"}, "[6]": {"substrate": "O=c1ccc2cc(O[C@@H]3O[C@H](CO)[C@@H](O)[C@H](O)[C@H]3O)c(O)cc2o1", "assay": "hexokinase/G6PDH thio-NAD+ coupled glucose release", "assay_type": "biochemical, Ignavibacterium album", "from_the_text": "as §1"}, "[7]": {"substrate": "OC[C@H]1O[C@@H](Oc2ccc(O)cc2)[C@H](O)[C@@H](O)[C@@H]1O", "assay": "hexokinase/G6PDH thio-NAD+ coupled glucose release", "assay_type": "biochemical, Ignavibacterium album", "from_the_text": "as §1"}, "[8]": {"substrate": "OC[C@H]1O[C@H](OCc2ccccc2)[C@H](O)[C@@H](O)[C@@H]1O", "assay": "hexokinase/G6PDH thio-NAD+ coupled glucose release", "assay_type": "biochemical, Ignavibacterium album", "from_the_text": "as §1"}, "[9]": {"substrate": "OC[C@H]1O[C@H](Oc2ccc(O)cc2)[C@H](O)[C@@H](O)[C@@H]1O", "assay": "hexokinase/G6PDH thio-NAD+ coupled glucose release", "assay_type": "biochemical, Ignavibacterium album", "from_the_text": "as §1"}, "[10]": {"substrate": "OC[C@H]1O[C@H](Oc2ccc3ccccc3c2)[C@H](O)[C@@H](O)[C@@H]1O", "assay": "hexokinase/G6PDH thio-NAD+ coupled glucose release", "assay_type": "biochemical, Ignavibacterium album", "from_the_text": "as §1"}, "[11]": {"substrate": "OC[C@H]1O[C@H](Oc2ccccc2)[C@H](O)[C@@H](O)[C@@H]1O", "assay": "hexokinase/G6PDH thio-NAD+ coupled glucose release", "assay_type": "biochemical, Ignavibacterium album", "from_the_text": "as §1"}, "[12]": {"substrate": "OCc1ccc(O[C@@H]2O[C@H](CO)[C@@H](O)[C@H](O)[C@H]2O)cc1", "assay": "hexokinase/G6PDH thio-NAD+ coupled glucose release", "assay_type": "biochemical, Ignavibacterium album", "from_the_text": "as §1"}, "[13]": {"substrate": "OCc1ccccc1O[C@@H]1O[C@H](CO)[C@@H](O)[C@H](O)[C@H]1O", "assay": "hexokinase/G6PDH thio-NAD+ coupled glucose release", "assay_type": "biochemical, Ignavibacterium album", "from_the_text": "as §1"}},
  "data": [
    {"protein": "B1", "values": [
      {"measurement": "Km", "setting": "purified protein [1]", "result": "0.040 ± 0.004", "unit": "mM"},
      {"measurement": "kcat", "setting": "purified protein [1]", "result": 0.46, "unit": "s⁻¹"},
      {"measurement": "kcat/Km", "setting": "purified protein [1]", "result": 12000, "unit": "M⁻¹ s⁻¹"},
      {"measurement": "Km", "setting": "purified protein [2]", "result": "0.13 ± 0.02", "unit": "mM"},
      {"measurement": "kcat", "setting": "purified protein [2]", "result": 5, "unit": "s⁻¹"},
      {"measurement": "kcat/Km", "setting": "purified protein [2]", "result": 39000, "unit": "M⁻¹ s⁻¹"},
      {"measurement": "Km", "setting": "[3]", "result": "0.044 ± 0.005", "unit": "mM"},
      {"measurement": "kcat", "setting": "[3]", "result": "0.55 ± 0.02", "unit": "s⁻¹"},
      {"measurement": "kcat/Km", "setting": "[3]", "result": "13000 ± 1000", "unit": "M⁻¹ s⁻¹"},
      {"measurement": "Km", "setting": "[4]", "result": "0.13 ± 0.03", "unit": "mM"},
      {"measurement": "kcat", "setting": "[4]", "result": "1.9 ± 0.2", "unit": "s⁻¹"},
      {"measurement": "kcat/Km", "setting": "[4]", "result": "14000 ± 2000", "unit": "M⁻¹ s⁻¹"},
      {"measurement": "Km", "setting": "[5]", "result": "0.20 ± 0.03", "unit": "mM"},
      {"measurement": "kcat", "setting": "[5]", "result": "1 ± 0.1", "unit": "s⁻¹"},
      {"measurement": "kcat/Km", "setting": "[5]", "result": "4900 ± 400", "unit": "M⁻¹ s⁻¹"},
      {"measurement": "Km", "setting": "[6]", "result": "0.045 ± 0.006", "unit": "mM"},
      {"measurement": "kcat", "setting": "[6]", "result": "1.3 ± 0.1", "unit": "s⁻¹"},
      {"measurement": "kcat/Km", "setting": "[6]", "result": "29000 ± 1000", "unit": "M⁻¹ s⁻¹"},
      {"measurement": "Km", "setting": "[7]", "result": "0.026 ± 0.003", "unit": "mM"},
      {"measurement": "kcat", "setting": "[7]", "result": "1.4 ± 0.1", "unit": "s⁻¹"},
      {"measurement": "kcat/Km", "setting": "[7]", "result": "55000 ± 5000", "unit": "M⁻¹ s⁻¹"},
      {"measurement": "Km", "setting": "[8]", "result": "0.096 ± 0.011", "unit": "mM"},
      {"measurement": "kcat", "setting": "[8]", "result": "0.86 ± 0.05", "unit": "s⁻¹"},
      {"measurement": "kcat/Km", "setting": "[8]", "result": "9000 ± 700", "unit": "M⁻¹ s⁻¹"},
      {"measurement": "Km", "setting": "[9]", "result": "0.38 ± 0.05", "unit": "mM"},
      {"measurement": "kcat", "setting": "[9]", "result": "8.7 ± 0.6", "unit": "s⁻¹"},
      {"measurement": "kcat/Km", "setting": "[9]", "result": "23000 ± 2000", "unit": "M⁻¹ s⁻¹"},
      {"measurement": "Km", "setting": "[10]", "result": "0.15 ± 0.03", "unit": "mM"},
      {"measurement": "kcat", "setting": "[10]", "result": "3.9 ± 0.3", "unit": "s⁻¹"},
      {"measurement": "kcat/Km", "setting": "[10]", "result": "26000 ± 3000", "unit": "M⁻¹ s⁻¹"},
      {"measurement": "Km", "setting": "[11]", "result": "0.22 ± 0.03", "unit": "mM"},
      {"measurement": "kcat", "setting": "[11]", "result": "1.8 ± 0.2", "unit": "s⁻¹"},
      {"measurement": "kcat/Km", "setting": "[11]", "result": "8100 ± 600", "unit": "M⁻¹ s⁻¹"},
      {"measurement": "Km", "setting": "[12]", "result": "0.042 ± 0.004", "unit": "mM"},
      {"measurement": "kcat", "setting": "[12]", "result": "0.49 ± 0.02", "unit": "s⁻¹"},
      {"measurement": "kcat/Km", "setting": "[12]", "result": "12000 ± 1000", "unit": "M⁻¹ s⁻¹"},
      {"measurement": "Km", "setting": "[13]", "result": "0.021 ± 0.003", "unit": "mM"},
      {"measurement": "kcat", "setting": "[13]", "result": "0.88 ± 0.03", "unit": "s⁻¹"},
      {"measurement": "kcat/Km", "setting": "[13]", "result": "43000 ± 1000", "unit": "M⁻¹ s⁻¹"}
    ]}
  ]
}
